± gives the uncertainty stated by the source.

A short description of the data set: amyloid nucleation score (Sup35N fusion, yeast selection) (log enrichment); library NNK1; higher = more nucleation; inactive = no reads after selection. In outline: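 The nucleation score is a DiMSum log enrichment of output over input reads, centred on the mode score of non-aggregating sequences. Sequences under 100 input reads were excluded, and reads came from Illumina sequencing of plasmid inserts. Psi-negative yeast expressing Sup35N fused to peptides of 20 random codons were induced with 100 μM copper sulfate for 24 hours and grown 7 days at 30°C on medium lacking adenine and uracil. Random libraries had three technical output replicates.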
GHVWEQGRQLGSAPKDR displayed an amyloid nucleation score of 0.1 ± 0.71.

As to NRIRRWWTFRVLGDSQKCVD, the amyloid nucleation score was 0.411 ± 1.

Substance RRPENKCYHPLVCDFVAVWF returned an amyloid nucleation score of 0.476 ± 1.1.

SIGWYTQGRYVGMCHRN: the amyloid nucleation score came to 0.251 ± 0.53.

VDLSLLIMVFQFGGVGERLR came in with an amyloid nucleation score of 2.15 ± 0.17.

With YNKCLCAVLSRMFTGWHISA, the amyloid nucleation score came to 0.795 ± 0.88.

NPVPGARKNRVHAGSKSDTG showed an amyloid nucleation score of 0.075 ± 0.68.

As to SVHSLMRDRISVPPRIVKNP, the amyloid nucleation score was -0.008 ± 0.61.

In the case of VHFRYNIVTVSPQVIKFFST, the amyloid nucleation score stood at 5.36 ± 0.071.

Substance GFFYEWRVYCPAWINALWWH gave an amyloid nucleation score of 0.193 ± 0.77.

Consider FPSARYNNLT, for which the amyloid nucleation score was 0.655 ± 0.57.

The substance VQDVYENFSSPQNIGVMRAS registered an amyloid nucleation score of 0.956 ± 0.81.

For HVFVLLPSKFADLLKKPVLL, the amyloid nucleation score was -0.894 ± 1.7.

In turn, TGDLVTLGGVGL showed an amyloid nucleation score of 0.309 ± 0.42.

Consider HRDNH, for which the amyloid nucleation score was -0.253 ± 0.35.

Substance ELSVNMSRDLSVTGLVQGRR showed an amyloid nucleation score of 0.794 ± 0.36.

On to GIRCISLRKGHAGW, for which the amyloid nucleation score was -1.65 ± 2.4.

For YVGRNLWK, the amyloid nucleation score came out at 0.402 ± 0.47.

As for CRLSTS, the amyloid nucleation score is -0.966 ± 0.42.

With NFRKL, the amyloid nucleation score entry is “inactive”.

REPIYFSVSMIWGTLASPVT: the amyloid nucleation score is -0.447 ± 0.98.

On to SGYSRGKEEQKHQFA, for which the amyloid nucleation score is 0.137 ± 0.6.

As to LAQELGR, the amyloid nucleation score turned out to be 1.68 ± 0.73.

For the substance VLSRIHCCRTPVDNGFRPQG, the amyloid nucleation score is -0.95 ± 0.94.

With FWYFMLNMVQPRY, the amyloid nucleation score is -0.198 ± 0.87.

For the substance YKNVCSDSVTLRKPGRVVLL, the amyloid nucleation score was -0.278 ± 0.67.

As to RSFWYDHGIRVGLRLYNCSM, the amyloid nucleation score result is “inactive”.

TFKYFDSLTLPDLYIVVHGS yielded an amyloid nucleation score of 0.037 ± 0.2.

Regarding EVGRSCWLGSL, the amyloid nucleation score was -0.344 ± 0.68.

KASGIMLSSGVLEILVWVQW displayed an amyloid nucleation score of 0.01 ± 0.84.

Consider YWWRWSVSI, for which the amyloid nucleation score was found to be 0.386 ± 0.33.

SDTVWFPYKLITSLHQSAKW registered an amyloid nucleation score of 1.41 ± 0.14.

Consider RECFRQANFCFMGLSTLGKS, for which the amyloid nucleation score was -0.88 ± 0.79.

For HYIFIRECYCIYLSIAFSQT, the amyloid nucleation score is 0.33 ± 0.36.

With NIHSEAPISPSMPGLREVTA, the amyloid nucleation score was 0.219 ± 0.32.

In the case of TMWIAGVRNR, the amyloid nucleation score is -0.367 ± 0.62.

Turning to RLHMRRRPFVNTHVS, the amyloid nucleation score came to 0.54 ± 0.42.

On to LISCIRFYCSVLGVDCTDSV, for which the amyloid nucleation score amounted to 0.235 ± 0.39.

For the substance TYTPRETTSTCSAYSFYMLK, the amyloid nucleation score was 1.26 ± 0.15.

PFVARQHMNPFTVVGTNLCH: the amyloid nucleation score is -0.376 ± 1.9.

Regarding LDSDGVASYDTRMSIRWYIE, the amyloid nucleation score is 2 ± 0.49.

Turning to GYGFFWCDCYRYDRGSRWTG, the amyloid nucleation score is 1.93 ± 0.15.

In turn, FELLMDIDC returned an amyloid nucleation score of 0.139 ± 0.83.

As for FFWCRSRLTLAF, the amyloid nucleation score amounted to 0.024 ± 0.35.

In turn, RIISRCFVMDVWFERQYVTR returned an amyloid nucleation score of 1.96 ± 0.18.

In turn, RSHVVTGYARSGRGLLATDM returned an amyloid nucleation score of 0.396 ± 0.45.

HNGHPRTAWVVVQY came in with an amyloid nucleation score of 0.298 ± 0.28.

Turning to SKQGRCLTFYQYVSLIISSM, the amyloid nucleation score is -0.022 ± 0.18.

Consider SWPLWEVMPRWGARDRGWVG, for which the amyloid nucleation score amounted to 0.553 ± 0.93.

As to YRGMGTTPKFT, the amyloid nucleation score was 0.356 ± 1.

As to LGGVSSVLFYSHFLQVLEWC, the amyloid nucleation score is -1.12 ± 0.78.

With TDAPHTCWLFFLYSVSFLIV, the amyloid nucleation score is -0.204 ± 0.43.

As to DIVSVVVWLKQYLWFEQWNV, the amyloid nucleation score is 0.644 ± 0.81.

Substance LLATCVRVECY registered an amyloid nucleation score of 1.58 ± 0.51.

In turn, GCHLVWFGVVYRQQWSFGVD gave an amyloid nucleation score of 0.563 ± 0.57.

For DNLSIWGL, the amyloid nucleation score was -0.629 ± 0.89.

As to PLFNNSRRCWGFGSLEDYLL, the amyloid nucleation score worked out at 0.213 ± 0.53.

In turn, ISCYVRISIILFLEKMVLRA yielded an amyloid nucleation score of 0.033 ± 0.24.

Consider VATIQRISGIKQESAGSRTF, for which the amyloid nucleation score was -0.07 ± 0.93.

Regarding HCFRWSMLGLRYATCPFQSD, the amyloid nucleation score was -0.108 ± 0.37.

Substance YVYSYLGGARGCVFKEKDPP displayed an amyloid nucleation score of 0.586 ± 0.47.

Consider FSASFNGLAAGRLASR, for which the amyloid nucleation score is -0.105 ± 1.3.

Take SFEWSSFTYFSNFWWLEPNT: the amyloid nucleation score was determined as 0.738 ± 0.65.

LSRLRLSAAGSADRESLVVS had an amyloid nucleation score of 0.538 ± 0.5.

Consider MWGMF, for which the amyloid nucleation score was -0.132 ± 0.35.

On to KCTELTTCRSPVMKGEAVWL, for which the amyloid nucleation score is -0.052 ± 0.77.

On to SDGRNHTANYPWG, for which the amyloid nucleation score is -0.182 ± 0.65.

LFLCMDTYIYLNLNSGGYSG gave an amyloid nucleation score of 4.8 ± 0.1.

In the case of IGTGCSDILRIWRECVNLRG, the amyloid nucleation score amounted to 1.5 ± 0.56.

Take TVSLGEQFLFTIAVGYGDSD: the amyloid nucleation score result was “inactive”.

Turning to APNFLMCNRPGIF, the amyloid nucleation score came to 3.02 ± 0.086.

For WVWSLRLLGFNNLMDKATGF, the amyloid nucleation score was -0.312 ± 0.24.

Consider VFLWDSHV, for which the amyloid nucleation score is -0.505 ± 0.39.

For the substance QFYKGRNSFNERSSSNVLRY, the amyloid nucleation score result is “inactive”.

Turning to IYPKLDCYVAVVLLDLSGVT, the amyloid nucleation score entry is “inactive”.

GQVHRFIWLVT: the amyloid nucleation score was -0.11 ± 0.3.

On to YKMCFSKVYESTEPMMCTGV, for which the amyloid nucleation score was -0.904 ± 0.8.

SSCSYLGRDRMCFWPYFLTT gave an amyloid nucleation score of 0.016 ± 0.39.

As to YIVRQECSRIQYLTDM, the amyloid nucleation score came to 1.22 ± 0.73.

Regarding GFTGFNRIGVLVGWKCN, the amyloid nucleation score worked out at 0.763 ± 0.92.

Regarding FCQLVIFY, the amyloid nucleation score worked out at 2.8 ± 0.18.

Regarding ALFESRPYTLSRERDKL, the amyloid nucleation score is -0.302 ± 0.36.

As to EIAYVLICRHLLECIRA, the amyloid nucleation score result is “inactive”.

As for CNFLLATWRRLKYTSQYLKS, the amyloid nucleation score was -0.073 ± 0.69.

For EGLTNMWGGSYYNGLTFMGQ, the amyloid nucleation score was -0.754 ± 0.54.

With SLLRRA, the amyloid nucleation score worked out at 0.575 ± 0.71.

ISYESWVLRGIARGFQGLVG: the amyloid nucleation score is -1.09 ± 0.7.

As to IKLFARGGI, the amyloid nucleation score was determined as 0.39 ± 0.59.

As to FVLWIY, the amyloid nucleation score is 0.14 ± 0.47.

Take NPMLLPSEPSS: the amyloid nucleation score is -0.181 ± 0.42.

On to CLFLDWMPM, for which the amyloid nucleation score worked out at 0.548 ± 0.84.

With NRQKFSDVSYCTMTMFRVAH, the amyloid nucleation score is -0.61 ± 1.7.

For MAGYL, the amyloid nucleation score is -0.078 ± 0.48.

Regarding QCANAVNHRTLGLMLFKMVL, the amyloid nucleation score stood at 0.19 ± 0.5.

On to EPLISCILCKLEGWIPYHI, for which the amyloid nucleation score was -0.493 ± 0.56.

IGLAICNLLFSTGWGYQPLW: the amyloid nucleation score was determined as 5.75 ± 0.083.

Take MKIVNVHAWATQLARGDICE: the amyloid nucleation score worked out at 0.745 ± 0.83.

Regarding FVTKGVERCRVPEVSLPCLI, the amyloid nucleation score was -0.839 ± 1.2.

For the substance PAMLPLTAMFLLHGRYVLTP, the amyloid nucleation score was -0.384 ± 0.8.

In the case of VGTTLRFWGKLFNPVDKAIR, the amyloid nucleation score was -0.619 ± 0.46.

Consider GPILDSNKASIPIV, for which the amyloid nucleation score is -0.322 ± 0.96.

Regarding VLSPKSNIGDMSLIFMNTAA, the amyloid nucleation score stood at 0.54 ± 0.79.

Take VGCVWAQEDRVPT: the amyloid nucleation score was -0.715 ± 0.83.

DSLSGSICGFRLYALLFTLT: the amyloid nucleation score is -0.113 ± 0.53.

With YIVTTLQYDRSLASKVDEGT, the amyloid nucleation score is -0.489 ± 0.56.

As for AFYLLF, the amyloid nucleation score is -0.395 ± 0.51.

Consider GRISRFLFQRDNVWPSLAKQ, for which the amyloid nucleation score was found to be 0.171 ± 0.52.

In turn, QTTTLYRFCCEWQSPASVVM gave an amyloid nucleation score of 0.333 ± 0.97.

With KTFYFTQLYSDYRLFFETGK, the amyloid nucleation score is 0.558 ± 0.46.

LFVHFLTLSVISHYPRGN: the amyloid nucleation score entry was “inactive”.

MPLKVSSMDLGRIKE: the amyloid nucleation score was -0.333 ± 0.41.

FRIAGSKRCFCID displayed an amyloid nucleation score of 0.463 ± 0.31.

HSWYEELMVVLNISSHGHLD displayed an amyloid nucleation score of 0.351 ± 0.52.

VRYMSLWGIVSRVCGIRMER gave an amyloid nucleation score of 1.23 ± 0.56.

For the substance EIVRLVSVSVWVG, the amyloid nucleation score was determined as 0.014 ± 0.69.

For SFYLFCPNCGRWTVFGEYS, the amyloid nucleation score is -1 ± 0.31.

As for RNWLLDTNSLQVMSPYIFEV, the amyloid nucleation score was -0.41 ± 0.74.

For NLHFVGTCHTFSSAYNRRET, the amyloid nucleation score was -0.95 ± 2.7.

In turn, CLLSRLYMVSLFWS gave an amyloid nucleation score of 0.033 ± 0.43.

As for FYGFRCGYLDVSL, the amyloid nucleation score is -0.648 ± 0.33.

As to VVSRIDPCTWHCAMIKGHRY, the amyloid nucleation score is -0.332 ± 1.1.

Consider LCLLPG, for which the amyloid nucleation score came to 0.888 ± 0.5.

In turn, LSLCSLYNSWQGM returned an amyloid nucleation score of 0.492 ± 0.4.

Consider YVLYCICV, for which the amyloid nucleation score worked out at 5.95 ± 0.073.

As for TFGVVEFSRNRGMSLCETLN, the amyloid nucleation score turned out to be 0.386 ± 0.42.

Regarding HCVEVSYKTSYAKELSFRVC, the amyloid nucleation score is -0.142 ± 1.1.

The substance VPCGKLIISGGVQNCIYYWE registered an amyloid nucleation score of 7.306 ± 0.056.

SLKGFADSVSGSVGLKDKAV: the amyloid nucleation score was determined as 0.502 ± 0.61.

In turn, VLRQMS returned an amyloid nucleation score of 1.67 ± 0.19.

As to FLFLYNVGVVIRSGYMFLRS, the amyloid nucleation score is 0.088 ± 0.93.

With RCKFESVKRVS, the amyloid nucleation score is 1.42 ± 0.54.

DSWYRLLLARACNISHVRGR: the amyloid nucleation score was -0.527 ± 0.48.

In turn, FCCGSGNSMDMCWFLSIG yielded an amyloid nucleation score of 6.93 ± 0.079.

LVGRSFSCEPRLYTFCEFCG came in with an amyloid nucleation score of 2.61 ± 0.18.

As to LLRCPYLNFGASMYLIRFCS, the amyloid nucleation score turned out to be 0.404 ± 0.53.

Substance LTFCCIMYSIYHSQPDFCGL had an amyloid nucleation score of 2.37 ± 0.099.

Consider RPLFIMSLFRGWRRIKLHGS, for which the amyloid nucleation score is -0.527 ± 0.49.

FCISLFSHWFALW had an amyloid nucleation score of 5.72 ± 0.067.

ACTGARCVRDQ displayed an amyloid nucleation score of 0.452 ± 0.45.

For the substance RFILPVVGSSHLINSLADSL, the amyloid nucleation score was -0.8 ± 1.4.

For the origin of these results see the supplement of paper PMC12042874.
